Test results: patent US20230147657A1 (INSERM INSTITUT NATIONAL DE LA SANT ET DE LA RECHERCHE M …, published 2023)

Assays:
human CD45RC [1] = target: T1, human CD45RC (human, UniProt P08575 26-1306); test: cell-based or functional assay
T1 construct: Native protein on human blood leukocytes / PBMC / T cells of healthy volunteers; also called hCD45RC
T1 sequence: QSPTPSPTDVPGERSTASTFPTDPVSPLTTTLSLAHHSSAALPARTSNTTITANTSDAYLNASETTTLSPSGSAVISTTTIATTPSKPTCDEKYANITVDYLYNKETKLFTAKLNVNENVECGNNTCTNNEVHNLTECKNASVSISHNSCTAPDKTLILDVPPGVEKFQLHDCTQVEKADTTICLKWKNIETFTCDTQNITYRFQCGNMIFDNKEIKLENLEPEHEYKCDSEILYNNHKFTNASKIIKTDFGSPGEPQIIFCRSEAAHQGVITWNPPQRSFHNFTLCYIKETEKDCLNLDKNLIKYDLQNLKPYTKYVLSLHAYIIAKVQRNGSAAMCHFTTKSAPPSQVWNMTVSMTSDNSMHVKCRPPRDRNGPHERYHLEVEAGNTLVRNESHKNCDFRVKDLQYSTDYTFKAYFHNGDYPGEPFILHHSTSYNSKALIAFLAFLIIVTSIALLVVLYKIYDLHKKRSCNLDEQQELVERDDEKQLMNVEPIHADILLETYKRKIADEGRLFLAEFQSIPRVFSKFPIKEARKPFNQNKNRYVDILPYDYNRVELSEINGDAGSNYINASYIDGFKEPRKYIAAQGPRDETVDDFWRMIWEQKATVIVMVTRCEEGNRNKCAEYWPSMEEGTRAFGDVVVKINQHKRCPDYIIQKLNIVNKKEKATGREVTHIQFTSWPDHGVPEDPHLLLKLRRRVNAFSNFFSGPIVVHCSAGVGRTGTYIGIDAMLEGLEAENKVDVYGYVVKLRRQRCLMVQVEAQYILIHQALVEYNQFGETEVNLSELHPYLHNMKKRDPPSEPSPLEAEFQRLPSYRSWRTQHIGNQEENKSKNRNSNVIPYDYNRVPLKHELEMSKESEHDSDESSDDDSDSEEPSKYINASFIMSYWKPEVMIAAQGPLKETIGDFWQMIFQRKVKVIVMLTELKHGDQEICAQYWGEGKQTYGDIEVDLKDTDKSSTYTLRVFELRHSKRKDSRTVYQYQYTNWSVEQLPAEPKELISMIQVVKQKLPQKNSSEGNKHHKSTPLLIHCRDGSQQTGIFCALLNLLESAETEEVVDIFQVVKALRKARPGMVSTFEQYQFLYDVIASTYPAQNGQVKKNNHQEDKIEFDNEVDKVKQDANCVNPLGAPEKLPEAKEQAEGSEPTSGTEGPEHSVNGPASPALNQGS

human CD45RC [2] = target: T1, human CD45RC; test: flow cytometry, EDTA whole blood, one of three healthy volunteers [3]
human CD45RC [3] = target: T1, human CD45RC; test: flow cytometry, EDTA whole blood, one of three healthy volunteers [2]
human CD45RC [4] = target: T1, human CD45RC; test: flow cytometry, EDTA whole blood, one of three healthy volunteers [1]
human CD45RC [5] = target: T1, human CD45RC; test: flow cytometry, EDTA whole blood, one of three healthy volunteers; very few events [2]
human CD45RC [6] = target: T1, human CD45RC; test: flow cytometry on T cells of human PBMC; biotin anti-human IgG + streptavidin PerCP-Cy5.5
[7] = target: T2, human CD45RC in solubilized cell membranes (CD45RC^high PBMCs or CHO cells expressing CD45RC) (human, UniProt P08575 26-1306); test: SPR (BIAcore 3000 / T200), ABIS-45RC immobilized on CM5 chip, solubilized cell membranes as analyte, 25 °C, single cycle kinetics and calibration free concentration analysis
T2 sequence: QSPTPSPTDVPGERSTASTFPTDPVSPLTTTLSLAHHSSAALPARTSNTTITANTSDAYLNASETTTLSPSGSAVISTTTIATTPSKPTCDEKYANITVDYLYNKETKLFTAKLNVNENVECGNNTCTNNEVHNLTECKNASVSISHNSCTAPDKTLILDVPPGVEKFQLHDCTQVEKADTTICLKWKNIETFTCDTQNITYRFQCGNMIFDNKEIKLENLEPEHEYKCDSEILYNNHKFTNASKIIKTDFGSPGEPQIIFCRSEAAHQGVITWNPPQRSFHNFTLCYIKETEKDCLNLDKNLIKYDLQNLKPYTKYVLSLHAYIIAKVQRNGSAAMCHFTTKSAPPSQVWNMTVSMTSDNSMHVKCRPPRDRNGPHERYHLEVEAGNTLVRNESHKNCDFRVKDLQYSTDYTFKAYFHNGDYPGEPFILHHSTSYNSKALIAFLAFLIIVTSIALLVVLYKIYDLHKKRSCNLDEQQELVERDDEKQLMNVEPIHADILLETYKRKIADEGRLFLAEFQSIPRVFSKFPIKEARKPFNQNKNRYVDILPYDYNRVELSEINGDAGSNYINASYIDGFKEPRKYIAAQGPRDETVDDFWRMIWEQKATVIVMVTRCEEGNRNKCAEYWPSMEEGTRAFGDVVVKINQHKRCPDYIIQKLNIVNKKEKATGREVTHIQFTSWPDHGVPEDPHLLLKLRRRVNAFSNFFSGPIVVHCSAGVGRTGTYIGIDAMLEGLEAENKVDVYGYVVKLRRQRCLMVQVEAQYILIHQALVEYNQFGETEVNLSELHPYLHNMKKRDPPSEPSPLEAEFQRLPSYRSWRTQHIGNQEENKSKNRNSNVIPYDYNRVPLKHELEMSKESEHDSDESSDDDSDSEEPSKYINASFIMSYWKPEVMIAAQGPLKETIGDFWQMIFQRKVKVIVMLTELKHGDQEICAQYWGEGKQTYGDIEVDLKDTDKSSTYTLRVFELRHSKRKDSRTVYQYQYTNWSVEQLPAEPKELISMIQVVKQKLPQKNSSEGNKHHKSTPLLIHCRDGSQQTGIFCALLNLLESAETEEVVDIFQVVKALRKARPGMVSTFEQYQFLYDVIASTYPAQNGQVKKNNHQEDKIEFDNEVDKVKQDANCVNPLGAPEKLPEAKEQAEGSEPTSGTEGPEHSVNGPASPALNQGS
From the text: Briefly, 1×10⁷ CD45RC^high PBMCs or CHO cells expressing CD45RC after plasmid transfection were solubilized using the Mem-PER membrane isolation kit (Thermo-fisher).

## Ctrl-CAR (control CAR having a different antigenic specificity) (receptor)
Human CD45RC [1]
  apoptosis of human T cells after 18 h with transduced Jurkat cells (annexin V / DAPI): 7 to 8%

## MT2 (murine anti-hCD45RC antibody, commercially available)
Human CD45RC [2]
  % of basophils in the CD45RC high gate (top): 0%
  % of basophils in the CD45RC intermediate/low gate (middle): 7.3%
  % of basophils in the CD45RC negative gate (bottom): 92.7%
  % of eosinophils in the CD45RC high gate (top): 0.47%
  % of eosinophils in the CD45RC intermediate/low gate (middle): 90.5%
  % of eosinophils in the CD45RC negative gate (bottom): 9.08%
  % of mDC in the CD45RC high gate (top): 0%
  % of mDC in the CD45RC intermediate/low gate (middle): 14.3%
  % of mDC in the CD45RC negative gate (bottom): 85.7%
  % of monocytes CD14intCD16+ in the CD45RC high gate (top): 6.45%
  % of monocytes CD14intCD16+ in the CD45RC intermediate/low gate (middle): 87.7%
  % of monocytes CD14intCD16+ in the CD45RC negative gate (bottom): 5.87%
  % of neutrophils in the CD45RC high gate (top): 0.014%
  % of neutrophils in the CD45RC intermediate/low gate (middle): 19.3%
  % of neutrophils in the CD45RC negative gate (bottom): 80.7%
  % of pDC in the CD45RC high gate (top): 1.84%
  % of pDC in the CD45RC intermediate/low gate (middle): 97.9%
  % of pDC in the CD45RC negative gate (bottom): 0.23%
Human CD45RC [3]
  % of ILC1 in the CD45RC high gate (top): 9.3%
  % of ILC1 in the CD45RC intermediate/low gate (middle): 27.5%
  % of ILC1 in the CD45RC negative gate (bottom): 63.2%
  % of ILC2 in the CD45RC high gate (top): 45%
  % of ILC2 in the CD45RC intermediate/low gate (middle): 49.5%
  % of ILC2 in the CD45RC negative gate (bottom): 5.5%
  % of MAIT cells in the CD45RC high gate (top): 5.89%
  % of MAIT cells in the CD45RC intermediate/low gate (middle): 71%
  % of MAIT cells in the CD45RC negative gate (bottom): 23.2%
  % of NKT cells in the CD45RC high gate (top): 34.4%
  % of NKT cells in the CD45RC intermediate/low gate (middle): 54.2%
  % of NKT cells in the CD45RC negative gate (bottom): 11.4%
  % of iNKT cells in the CD45RC high gate (top): 24.1%
  % of iNKT cells in the CD45RC intermediate/low gate (middle): 61.6%
  % of iNKT cells in the CD45RC negative gate (bottom): 14.3%
  % of monocytes CD14+ in the CD45RC high gate (top): 0.43%
  % of monocytes CD14+ in the CD45RC intermediate/low gate (middle): 43.9%
  % of monocytes CD14+ in the CD45RC negative gate (bottom): 55.6%
  % of monocytes CD14highCD16- in the CD45RC high gate (top): 0.091%
  % of monocytes CD14highCD16- in the CD45RC intermediate/low gate (middle): 38.3%
  % of monocytes CD14highCD16- in the CD45RC negative gate (bottom): 61.6%
Human CD45RC [4]
  % of B cells in the CD45RC high gate (top): 79.9%
  % of B cells in the CD45RC intermediate/low gate (middle): 20.1%
  % of B cells in the CD45RC negative gate (bottom): 0%
  % of CD3+ TCRab cells in the CD45RC high gate (top): 8.34%
  % of CD3+ TCRab cells in the CD45RC intermediate/low gate (middle): 46.2%
  % of CD3+ TCRab cells in the CD45RC negative gate (bottom): 45.5%
  % of CD3+ TCRgd cells in the CD45RC high gate (top): 1.93%
  % of CD3+ TCRgd cells in the CD45RC intermediate/low gate (middle): 90.6%
  % of CD3+ TCRgd cells in the CD45RC negative gate (bottom): 7.46%
  % of CD4+ T cells in the CD45RC high gate (top): 3.64%
  % of CD4+ T cells in the CD45RC intermediate/low gate (middle): 47.2%
  % of CD4+ T cells in the CD45RC negative gate (bottom): 49.2%
  % of CD4+ Treg (CD25+CD127-) in the CD45RC high gate (top): 3.52%
  % of CD4+ Treg (CD25+CD127-) in the CD45RC intermediate/low gate (middle): 19.8%
  % of CD4+ Treg (CD25+CD127-) in the CD45RC negative gate (bottom): 76.7%
  % of CD8+ T cells in the CD45RC high gate (top): 38.8%
  % of CD8+ T cells in the CD45RC intermediate/low gate (middle): 39.7%
  % of CD8+ T cells in the CD45RC negative gate (bottom): 21.5%
  % of NK cells in the CD45RC high gate (top): 28.6%
  % of NK cells in the CD45RC intermediate/low gate (middle): 70.4%
  % of NK cells in the CD45RC negative gate (bottom): 1%
  % of T cells in the CD45RC high gate (top): 7.43%
  % of T cells in the CD45RC intermediate/low gate (middle): 49.7%
  % of T cells in the CD45RC negative gate (bottom): 42.9%
Human CD45RC [5]
  % of ILC3 in the CD45RC high gate (top): 50%
  % of ILC3 in the CD45RC intermediate/low gate (middle): 50%
  % of ILC3 in the CD45RC negative gate (bottom): 0%

B1: Anti-45RC Variant H (antibody, human IgG1, kappa, V domains shown)
VH: QVQLVESGGGLVKPGGSLRLSCAASGYTFTNYYIGWIRQAPGKGLEWIGDIFPGGDYANSNEKVKGRFTLSADTAKNSAYLQMNSLRAEDTAVYYCVRRNFDYWGQGTLVTVSS
VL: EIVLTQSPATLSLSPGERATLSCSASSSVSYMHWFQQKPGQAPRLWIYNTSNLPSGIPARFSGSGSGTDYTLTISSLEPEDFAVYYCQQRSSYPLTFGGGTKVEIKR
notes: also called humanized ABIS-45RC variant H
Human CD45RC [6]
  % of T cells in the CD45RC gate at 1 µg/mL: 29.5%
  % of T cells in the CD45RC gate at 2 µg/mL: 13.2%

B2: Anti-45RC Variant I (antibody, human IgG1, kappa, V domains shown)
VH: QVQLVESGGGLVKPGGSLRLSCAASGYTFTNYYIGWIRQAPGKGLEWIGDIFPGGDYANSNEKVKGRFTLSADTAKNSAYLQMNSLRAEDTAVYYCVRRNFDYWGQGTLVTVSS
VL: DIQLTQSPSFLSASVGDRVTITCSASSSVSYMHWFQQKPGKAPKLWIYNTSNLPSGVPSRFSGSGSGTEYTLTISSLQPEDFATYYCQQRSSYPLTFGGGTKVEIKR
notes: also called humanized ABIS-45RC variant I
Human CD45RC [6]
  % of T cells in the CD45RC gate at 1 µg/mL: 49.7%
  % of T cells in the CD45RC gate at 2 µg/mL: 48.9%

B3: ABIS-45RC (antibody, mouse IgG1, kappa, V domains shown)
VH: QVQLQQSGAELVRPGTSVKMSCKAAGYTFTNYYIGWVKQRPGHGLEWIGDIFPGGDYANSNEKFKGKATLTADTSSSTAYMQLSSLTSEDSAIYYCVRRNFDYWGQGTTLTVSS
VL: QIVLTQSPTIMSASPGEKVTITCSASSSVSYMHWFQQKTGTSPRLWIYNTSNLPSGVPARFSGSGSGTSYSLTISRMEAEDAATYYCQQRSSYPLTFGAGTKLELKR
notes: also called murine ABIS-45RC; ABIS-CD45RC
[7]
  Kd: 50 nM
  koff: 0.0144 s⁻¹
  kon: 291000 M⁻¹ s⁻¹
Human CD45RC [6]
  % of T cells in the CD45RC gate at 1 µg/mL: 61.3%
  % of T cells in the CD45RC gate at 2 µg/mL: 61.1%
